Publication PMC12275187, “CpgD is a phosphoglycerate cytidylyltransferase required for ceramide diphosphoglycerate synthesis” (The Journal of Biological Chemistry, 2025)

T1: CpgD (CCNA_01210) (Caulobacter vibrioides, UniProt A0A0H3C7D9)
T1 construct: expressed in E. coli ER2566; primers encode N-terminus MQPVKT, C-terminus EAEAV
T1 sequence (A0A0H3C7D9 1-253): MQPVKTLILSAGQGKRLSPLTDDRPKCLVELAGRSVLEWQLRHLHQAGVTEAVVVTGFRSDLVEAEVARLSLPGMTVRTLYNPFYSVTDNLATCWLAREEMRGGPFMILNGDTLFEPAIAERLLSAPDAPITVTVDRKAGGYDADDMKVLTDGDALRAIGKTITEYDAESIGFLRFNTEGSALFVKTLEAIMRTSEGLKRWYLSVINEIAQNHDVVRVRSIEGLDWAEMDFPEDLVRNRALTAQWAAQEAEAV


Experiments:
CpgD (CCNA_01210) = molecular target: T1, CpgD (CCNA_01210); assay: thermal shift assay (GloMelt dye); format: binding; conditions: 10 mM nucleotide, 50 mM MgCl2, 50 mM HEPES pH 7.5; Tm change only in figure
[1] = substrate: O=C(O)[C@@H](CO)OP(=O)(O)O; assay: HPAEC quantification of CDP-glycerate; format: biochemical, Caulobacter vibrioides; conditions: 10 mM CTP, 50 mM MgCl2, 50 mM HEPES pH 7.5, 45 min; pH 7.5
Description: (§1) HPAEC quantification of CDP-glycerate on CpgD (CCNA_01210)

[2] = substrate: Nc1ccn([C@@H]2O[C@H](COP(=O)(O)OP(=O)(O)OP(=O)(O)O)[C@@H](O)[C@H]2O)c(=O)n1; assay: HPAEC quantification of CDP-glycerate; format: biochemical, Caulobacter vibrioides
Description: as §1

[3] = substrate: O=C(O)[C@H](O)COP(=O)(O)O; assay: HPAEC quantification of CDP-glycerate; format: biochemical, Caulobacter vibrioides; conditions: 10 mM CTP, 50 mM MgCl2, 50 mM Tris pH 8.0, 3.5 h; pH 8.0
Description: as §1

[4] = substrate: O=C(O)[C@H](CO)OP(=O)(O)O; assay: HPAEC quantification of CDP-glycerate; format: biochemical, Caulobacter vibrioides; conditions: 10 mM CTP, 50 mM MgCl2, 50 mM HEPES pH 7.5, 45 min; pH 7.5
Description: as §1

[5] = 10 mM 3-phosphoglycerate, 50 mM MgCl2, 50 mM Tris pH 8.0, 3.5 h, Michaelis-Menten fit, pH 8.0
[6] = 10 mM D-2-phosphoglycerate, 50 mM MgCl2, 50 mM HEPES pH 7.5, 45 min, Hill fit, cooperative (Hill coefficient 2.5), pH 7.5

Molecule | Tm (CpgD (CCNA_01210)) | Km [1] | Vmax [1] | Km [2, 5] | Vmax [2, 5] | K0.5 [2, 6] | Vmax [2, 6] | Km [3] | Vmax [3] | Km [4] | Vmax [4]
Nc1ncnc2c1ncn2[C@@H]1O[C@H](COP(=O)(O)OP(=O)(O)OP(=O)(O)O)[C@@H](O)[C@H]1O [ATP] | we consistently measured a lower melting temperature in the presence of ATP |  |  |  |  |  |  |  |  |  | 
Nc1ccn([C@@H]2O[C@H](COP(=O)(O)OP(=O)(O)OP(=O)(O)O)[C@@H](O)[C@H]2O)c(=O)n1 [CTP] | increase in the melting temperature of the protein was only observed upon addition of CTP |  |  |  |  |  |  |  |  |  | 
CpgD (CCNA_01210) (Caulobacter vibrioides NA1000) (protein, expressed in E. coli ER2566; primers encode N-terminus MQPVKT, C-terminus EAEAV) MQPVKTLILSAGQGKRLSPLTDDRPKCLVELAGRSVLEWQLRHLHQAGVTEAVVVTGFRSDLVEAEVARLSLPGMTVRTLYNPFYSVTDNLATCWLAREEMRGGPFMILNGDTLFEPAIAERLLSAPDAPITVTVDRKAGGYDADDMKVLTDGDALRAIGKTITEYDAESIGFLRFNTEGSALFVKTLEAIMRTSEGLKRWYLSVINEIAQNHDVVRVRSIEGLDWAEMDFPEDLVRNRALTAQWAAQEAEAV |  | 0.84 ± 0.16 mM | 3.2 µmol/min/mg | 4.8 ± 0.9 mM | 0.4 µmol/min/mg | 6.4 ± 0.8 mM | 3.6 µmol/min/mg | 10.9 ± 0.7 mM | 0.72 µmol/min/mg | 3.1 ± 0.6 mM | 1.5 µmol/min/mg
